Measured values: US8828676B2, “Methods for differentiating plasma-derived protein from recombinant protein in a sample” (Baxter International Inc., priority 2007, dated 2014)
Where two headings read alike, the source gives them in different places.

What was measured:
[1] = molecular target: binding of SNA to plasma VWF (Sambucus nigra, UniProt Q41358); settings: for Inhibition of binding of SNA to plasma VWF: plasma VWF:Ag 5 mU/mL
[2] = test system: Maackia amurensis agglutinin (MAA); experiment: MAA binding of plasma VWF and rVWF after neuraminidase treatment; settings: for Binding to MAL after addition of neuraminidase: neuraminidase 1-20 mU/mL
Description: In order to confirm that the recombinant protein did express sialic acid moieties, but in a different configuration than the plasma derived sialic acid, a binding assay that measures binding of protein to α2,3-linked neuraminic acid is used to detect the recombinantly expressed α2,3-linked neuraminic acid on the recombinant protein. The lectin, Maackia amurensis agglutinin (MAA), which binds α2,3-linked neuraminic acid, was used to determine if desialylation of rVWF occurred in the presence of neuraminidase.
Anti-vWF plates were prepared as above. Both the human plasma pool and the rVWF preparation were diluted to obtain VWF:Ag concentrations of 5 mU/mL and 2.5 mU/mL. 100 μL/well of the sample dilutions were loaded to the coated, periodate-oxidized plates and incubated for 60 minutes at RT and washed afterwards. The neuraminidase digest was then carried out on the plate. Neuraminidase (Sigma) was used at the concentrations of 0, 1, 5, 10 and 20 mU/mL. Afterwards, the plates were washed and incubated with the biotinylated MAA (Vector, 1 μg/mL) for 60 minutes at RT. The incubation was terminated by washing, after which the plates were incubated 30 minutes at RT with streptavidin peroxidase (DakoCytomation, 1/4000). After a final washing step, the bound peroxidase was measured as previously described.

[3] = molecular target: T1, Sambucus nigra agglutinin (SNA) (Sambucus nigra, UniProt Q41358); settings: plasma pool 2.88-0.18 mU VWF:Ag/mL; rVWF 311-19 mU/mL
[4] = molecular target: T1, Sambucus nigra agglutinin (SNA); settings: for Change of SNA binding after neuraminidase treatment: neuraminidase 0-20 mU/mL, 2 hours 37° C.
[5] = molecular target: T1, Sambucus nigra agglutinin (SNA); settings: mean of six tests, human plasma pool = 100%

Sequence of binding of SNA to plasma VWF (Q41358 309-570 limits assumed): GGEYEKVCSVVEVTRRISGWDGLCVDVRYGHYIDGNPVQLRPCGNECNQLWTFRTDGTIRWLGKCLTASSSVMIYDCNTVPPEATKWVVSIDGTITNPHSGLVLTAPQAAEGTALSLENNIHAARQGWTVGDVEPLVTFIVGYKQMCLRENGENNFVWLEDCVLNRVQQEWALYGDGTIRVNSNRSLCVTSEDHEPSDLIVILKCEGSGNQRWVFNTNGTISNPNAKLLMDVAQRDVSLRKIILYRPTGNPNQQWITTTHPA
Sequence of binding of SNA to plasma VWF (Q41358 29-289 partner limits assumed): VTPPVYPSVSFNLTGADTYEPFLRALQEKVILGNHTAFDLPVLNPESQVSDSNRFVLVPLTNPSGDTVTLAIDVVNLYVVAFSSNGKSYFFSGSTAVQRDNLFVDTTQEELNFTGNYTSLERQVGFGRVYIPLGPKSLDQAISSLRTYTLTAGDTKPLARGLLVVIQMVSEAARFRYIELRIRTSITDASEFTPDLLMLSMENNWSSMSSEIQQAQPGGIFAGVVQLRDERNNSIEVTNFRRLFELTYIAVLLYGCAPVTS

**Q.** For `CC(=O)N[C@H]1[C@H]([C@H](O)[C@H](O)CO)O[C@@](O[C@H]2[C@@H](O)[C@@H](CO)O[C@@H](O[C@H]3[C@H](O)[C@@H](O)C(O)O[C@@H]3CO)[C@@H]2O)(C(=O)O)C[C@@H]1O` (some centres unmarked) [3′-sialyllactose], which “Effect on binding of SNA to plasma VWF” value ([1]; assay as in Example 5) is on record?
**A.** The value was “no effect”.

**Q.** What does the source list for `CC(=O)N[C@H]1[C@H]([C@H](O)[C@H](O)CO)O[C@@](OC[C@H]2O[C@@H](O[C@H]3[C@H](O)[C@@H](O)[C@H](O)O[C@@H]3CO)[C@H](O)[C@@H](O)[C@H]2O)(C(=O)O)C[C@@H]1O` [6′-sialyllactose]?
**A.** Inhibition of binding of SNA to plasma VWF ([1]; 10 μM): approximately 25%; Inhibition of binding of SNA to plasma VWF ([1]; 100 μM): ~75%

**Q.** How did the “Binding to MAL after addition of neuraminidase” value [2] turn out when “CHO cell-derived rVWF: recombinantly produced von Willebrand factor from Chinese hamster ovary (CHO) cells” was run?
**A.** Its value is “abolished”.

**Q.** What about the MAA lectin binding ([2]; without neuraminidase) of the same compound?
**A.** The MAA lectin binding was “bound”.

**Q.** What about the SNA binding [3] of the same compound?
**A.** The SNA binding was “no binding”.

**Q.** What about the “Change of SNA binding after neuraminidase treatment” value ([4]; VWF:Ag 5 and 2.5 mU/mL) of the same compound?
**A.** The value was “not altered”.

**Q.** What about the SNA binding ([4]; without neuraminidase, VWF:Ag 5 and 2.5 mU/mL) of the same compound?
**A.** Its SNA binding is “no binding”.

**Q.** What does the source list for “plasma VWF: plasma derived von Willebrand factor, measured in a human plasma pool”?
**A.** Binding to MAL after addition of neuraminidase [2]: abolished; SNA binding [3]: clear dose dependent relation; Change of SNA binding after neuraminidase treatment ([4]; VWF:Ag 5 and 2.5 mU/mL): reduced proportional to the concentration of the neuraminidase applied; SNA binding relative to initially measured ([4]; neuraminidase 20 mU/mL): less than 95%; SNA binding Mean (SNA binding measured) ([5]; Example 7, 0 U rVWF spiked): 137.2%; SNA binding Mean (SNA binding found) ([5]; Example 8, 0 rVWF spiked): 123.5%
